Target: T1, G-protein Estrogen Receptor 1 (GPER1) (human (endogenous in SKBR3), UniProt Q99527 1-375)
T1 construct: Endogenous protein precipitated and detected with mouse monoclonal anti-human GPER1 (clone 2F2); also called GPR30; source: endogenous, SKBR3 cells (fixed cells; whole-cell extract)
Assay: proximity ligation; Duolink In Situ, bright field; fixed SKBR3 cells, endogenous proteins; rabbit polyclonal anti-ERα36 and mouse monoclonal anti-GPER1; cells treated with E2 (10^-7 M) and/or LPS
Settings: partners not purified

T1 sequence (Q99527 whole entry): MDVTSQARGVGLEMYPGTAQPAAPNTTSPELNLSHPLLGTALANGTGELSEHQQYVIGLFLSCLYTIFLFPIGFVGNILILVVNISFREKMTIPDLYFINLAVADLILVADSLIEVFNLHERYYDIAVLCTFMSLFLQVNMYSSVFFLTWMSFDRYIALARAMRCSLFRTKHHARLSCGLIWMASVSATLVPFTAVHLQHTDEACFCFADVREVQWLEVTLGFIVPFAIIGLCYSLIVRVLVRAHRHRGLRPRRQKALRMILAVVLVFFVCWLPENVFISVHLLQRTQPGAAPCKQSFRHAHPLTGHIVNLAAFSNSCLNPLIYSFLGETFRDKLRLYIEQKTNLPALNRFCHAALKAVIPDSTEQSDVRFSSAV

fold increase of interacting pairs (PLA dots) with LPS: ~5 fold
B1: estrogen receptor alpha 36 (ERα36) (receptor, human (endogenous in SKBR3), UniProt P03372-4 1-310, looked up)
chain: MAMESAKETRYCAVCNDYASGYHYGVWSCEGCKAFFKRSIQGHNDYMCPATNQCTIDKNRRKSCQACRLRKCYEVGMMKGGIRKDRRGGRMLKHKRQRDDGEGRGEVGSAGDMRAANLWPSPLMIKRSKKNSLALSLTADQMVSALLDAEPPILYSEYDPTRPFSEASMMGLLTNLADRELVHMINWAKRVPGFVDLTLHDQVHLLECAWLEILMIGLVWRSMEHPGKLLFAPNLLLDRNQGKCVEGMVEIFDMLLATSSRFRMMNLQGEEFVCLKSIILLNSGISHVEAKKRILNLHPKIFGNKWFPRV
notes: called estrogen receptor isoform 4 in the NCBI database; Endogenous protein detected with a rabbit polyclonal anti-ERα36 antibody; also called ERa36; estrogen receptor isoform 4; source: endogenous, SKBR3 cells (fixed cells; whole-cell extract)

Source: paper PMC8303269, “ERα36–GPER1 Collaboration Inhibits TLR4/NFκB-Induced Pro-Inflammatory Activity in Breast Cancer Cells” (International Journal of Molecular Sciences, 2021)
